Data: US20030054360

How the values were obtained:
Assay in all cases: filter
Conditions in all cases: 5-BrdU replaces T, apparent photocrosslink KD
[1] = target: platelet-derived growth factor (PDGF) (Homo sapiens) (UniProt P01127)
Angiogenin = Angiogenin (UniProt P03950)
[2] = target: T1, P-Selectin (Homo sapiens) (UniProt P16109)
T1 sequence: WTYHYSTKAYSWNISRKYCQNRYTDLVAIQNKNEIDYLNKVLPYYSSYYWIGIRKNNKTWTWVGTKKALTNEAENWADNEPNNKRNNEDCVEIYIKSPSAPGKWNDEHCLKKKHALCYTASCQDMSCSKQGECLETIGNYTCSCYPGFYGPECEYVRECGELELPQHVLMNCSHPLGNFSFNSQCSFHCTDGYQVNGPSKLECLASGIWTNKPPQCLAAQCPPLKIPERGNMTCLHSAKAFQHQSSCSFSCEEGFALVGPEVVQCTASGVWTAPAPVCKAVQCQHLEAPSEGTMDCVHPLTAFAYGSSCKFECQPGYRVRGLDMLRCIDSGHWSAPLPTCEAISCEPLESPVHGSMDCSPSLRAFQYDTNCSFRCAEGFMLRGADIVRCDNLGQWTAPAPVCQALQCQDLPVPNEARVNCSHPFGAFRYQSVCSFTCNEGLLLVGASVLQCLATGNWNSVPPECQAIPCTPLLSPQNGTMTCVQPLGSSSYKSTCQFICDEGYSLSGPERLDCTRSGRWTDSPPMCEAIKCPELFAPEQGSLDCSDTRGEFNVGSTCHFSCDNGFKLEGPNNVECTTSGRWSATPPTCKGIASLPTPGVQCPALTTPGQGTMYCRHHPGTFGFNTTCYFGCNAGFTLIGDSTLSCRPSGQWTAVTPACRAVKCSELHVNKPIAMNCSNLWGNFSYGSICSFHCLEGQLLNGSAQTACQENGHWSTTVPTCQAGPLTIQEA

[3] = target: beta-Nerve Growth Factor (beta-NGF) (UniProt P01138)
Interleukin-4 = target: T2, Interleukin-4 (UniProt P05112)
T2 sequence: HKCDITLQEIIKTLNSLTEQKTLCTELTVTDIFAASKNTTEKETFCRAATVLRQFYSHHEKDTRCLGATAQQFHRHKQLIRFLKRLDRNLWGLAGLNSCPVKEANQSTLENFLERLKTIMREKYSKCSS

[4] = target: Transforming Growth Factor beta1 (TGF-beta1) (UniProt P01137)
Chain of Transforming Growth Factor beta1 (TGF-beta1) (P01137 279-390): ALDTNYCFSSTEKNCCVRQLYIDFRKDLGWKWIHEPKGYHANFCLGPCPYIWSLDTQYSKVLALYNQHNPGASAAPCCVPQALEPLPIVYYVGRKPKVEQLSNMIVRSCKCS

Chain of Angiogenin (P03950 25-147): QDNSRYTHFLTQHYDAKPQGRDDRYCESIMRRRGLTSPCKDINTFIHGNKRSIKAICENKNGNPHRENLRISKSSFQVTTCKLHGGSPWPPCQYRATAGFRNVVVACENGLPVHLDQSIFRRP
Chain of platelet-derived growth factor (PDGF) (Homo sapiens) (P01127 82-190): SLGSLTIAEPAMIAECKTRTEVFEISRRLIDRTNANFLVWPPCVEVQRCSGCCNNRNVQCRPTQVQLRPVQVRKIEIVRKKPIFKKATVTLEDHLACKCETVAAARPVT
Chain of beta-Nerve Growth Factor (beta-NGF) (P01138 122-241): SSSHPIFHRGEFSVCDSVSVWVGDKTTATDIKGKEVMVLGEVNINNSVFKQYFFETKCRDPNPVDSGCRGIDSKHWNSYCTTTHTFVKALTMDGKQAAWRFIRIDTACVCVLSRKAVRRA

Q: Which Kd ([1]; plateau 74%, rate 0.21) does the source give for “ATATATATGGGAGGACGATGCGGCAAGGGAAACAGATAGCCCAGGCTCCCCCCCAGACGACGAGCGGGAAAAAAAA [PDGF pool 008 clone 37]” here?
A: Its Kd is 2.4 nM.

Q: How did the Kd ([1]; plateau 100%, rate 0.19) turn out when “ATATATATGGGAGGACGATGCGGCACAAGGAACAAAGCGGCCCCTATCCCCAACAGACGACGAGCGGGAAAAAAAA [PDGF pool 008 clone 31]” was run?
A: The Kd was 5.3 nM.

Q: How did the Kd (Angiogenin; plateau 37%, rate 0.62) turn out when “ATATATATGGGAGGACGATGCGGCACCAAAAGGTGGTCTTAGCCTAATTATGGACGTGTCCACCAGACGACGAGCGGGAAAAAAAA [Angiogenin pool 011 clone 27]” was run?
A: Its Kd is 0.3 nM.

Q: With “ATATATATGGGAGGACGATGCGGCACGAGGGAATCACCTCGAACTTGTCCTGGATTACTGCCCAGACGACGAGCGGGAAAAAAAA [P-selectin pool 014 clone 21]” as the sequence, how does the Kd ([2]; plateau 31%, rate 0.76) read?
A: The Kd was 9.1 nM.

Q: Which Kd ([1]; plateau 67%, rate 0.43) does the source give for “ATATATATGGGAGGACGATGCGGCAGCACCGAGGTACCCAACAGGGATCCGCCCAGACGACGAGCGGGAAAAAAAA [PDGF pool 008 clone 26]” here?
A: The Kd was 1.8 nM.

Q: “ATATATATGGGAGGACGATGCGGCCATACGCACTTCAGTGGGGATAATCCAACTGGTTTGGTGCAGACGACGAGCGGGAAAAAAAA [P-selectin pool 014 clone 95]” was tested. Which Kd ([2]; plateau 39%, rate 1.54, same sequence as SEQ 39) did it give?
A: Its Kd is 45 nM.

Q: “ATATATATGGGAGGACGATGCGGCCATACGCACTTCAGTGGGGATAATCCAACTGGTTTGGTGCAGACGACGAGCGGGAAAAAAAA [beta-NGF pool 031 clone 43]” was tested. Which Kd ([3]; plateau 38%) did it give?
A: The Kd was 7.9 nM.

Q: For “ATATATATGGGAGGACGATGCGGCCATGAACCCATCCTCTGGTTCATAATCGACGTGTTCGTGCAGACGACGAGCGGGAAAAAAAA [P-selectin pool 014 clone 17]”, which Kd ([2]; plateau 59%, rate 1.36) is on record?
A: Its Kd is 18 nM.

Q: Which Kd (Interleukin-4; plateau 52%, rate 0.17) does the source give for “ATATATATGGGAGGACGATGCGGCCCCGAGTTTCCCTAAGGTTTGGTTGACCTGTCATTTCAGCAGACGACGAGCGGGAAAAAAAA [IL-4 pool 012 clone 48]” here?
A: Its Kd is 4.3 nM.

Q: For “ATATATATGGGAGGACGATGCGGCCGGACATCCCCCAGGGCAAAACCAACTCCCAGACGACGAGCGGGAAAAAAAA [PDGF pool 008 clone 35]”, which Kd ([1]; plateau 71%, rate 0.07) is on record?
A: The Kd was 5.1 nM.

Q: For “ATATATATGGGAGGACGATGCGGCGCCCCGATTGACCTTCGATTTATCCTACTTATGGCACCCCAGACGACGAGCGGGAAAAAAAA [P-selectin pool 014 clone 14]”, which Kd ([2]; plateau 15%, rate 4) is on record?
A: The Kd was 0.35 nM.

Q: Which Kd ([3]; plateau 58%, rate 0.59) does the source give for “ATATATATGGGAGGACGATGCGGGACCAAATACCAACTTCACATCACCTTTCTTATTCTCCGGCAGACGACGAGCGGGAAAAAAAA [beta-NGF pool 031 clone 44]” here?
A: The Kd was 2.2 nM.

Q: For “ATATATATGGGAGGACGATGCGGGACCAATAACACTACACTGATCATCTCCCTTCTATGTCCCCAGACGACGAGCGGGAAAAAAAA [beta-NGF pool 031 clone 7]”, which Kd ([3]; plateau 55%, rate 0.42) is on record?
A: The Kd was 2.5 nM.

Q: How did the Kd ([4]; plateau 80%, rate 0.58) turn out when “ATATATATGGGAGGACGATGCGGGACCATCCAATACCTTCCGTAACACTTTCCTTCTTCCTTCCAGACGACGAGCGGGAAAAAAAA [TGF-beta1 pool 015 clone 81]” was run?
A: Its Kd is 7.2 nM.

Q: With “ATATATATGGGAGGACGATGCGGGCAAAGTCTTGGTCCACCAAATATGTGATGTCACCACCAGCAGACGACGAGCGGGAAAAAAAA [Angiogenin pool 011 clone 59]” as the sequence, how does the Kd (Angiogenin; plateau 26%, rate 0.52) read?
A: Its Kd is 0.22 nM.

Q: Which Kd ([4]; plateau 79%, rate 0.34) does the source give for “ATATATATGGGAGGACGATGCGGGCACAACCTTACCACCCTAGCCTACCCCTAACCTCCTGTCCAGACGACGAGCGGGAAAAAAAA [TGF-beta1 pool 015 clone 74]” here?
A: The Kd was 4.9 nM.

Q: Which Kd ([4]; plateau 80%, rate 0.5) does the source give for “ATATATATGGGAGGACGATGCGGGCACAATCAAGACCTCTCCAAACTTGAACTCTGTCTATCCCAGACGACGAGCGGGAAAAAAAA [TGF-beta1 pool 015 clone 87]” here?
A: Its Kd is 62 nM.

Q: For “ATATATATGGGAGGACGATGCGGGCACACTTAAATCCACTTCACCTTACAATTCCTTTATCTGCAGACGACGAGCGGGAAAAAAAA [beta-NGF pool 031 clone 17]”, which Kd ([3]; plateau 66%, rate 1.2, Table 7 sequence differs slightly from listing) is on record?
A: The Kd was 0.21 nM.

Q: How did the Kd (Angiogenin; plateau 34%, rate 1.3) turn out when “ATATATATGGGAGGACGATGCGGGCACCTACCTGAGCTACATATGACAGTGTCACCCTGGCCCCAGACGACGAGCGGGAAAAAAAA [Angiogenin pool 011 clone 14]” was run?
A: The Kd was 0.2 nM.

Q: “ATATATATGGGAGGACGATGCGGGCACTAACTTTACCTCCACCTCTAACCACCCTCCTTTCTGCAGACGACGAGCGGGAAAAAAAA [beta-NGF pool 031 clone 65]” was tested. Which Kd ([3]; plateau 47%, rate 0.94) did it give?
A: Its Kd is 0.2 nM.

Q: With “ATATATATGGGAGGACGATGCGGGCCAAATGGACTTTTCGCCACGAACTTACGACGGTGTTGCCAGACGACGAGCGGGAAAAAAAA [Angiogenin pool 011 clone 16]” as the sequence, how does the Kd (Angiogenin; plateau 28%, rate 2.6) read?
A: Its Kd is 0.3 nM.

Q: Which Kd (Angiogenin; plateau 23%, rate 1.46) does the source give for “ATATATATGGGAGGACGATGCGGGCCAACCACGTGGTATTATTGACCTTGCAATGGGAATGCCCAGACGACGAGCGGGAAAAAAAA [Angiogenin pool 011 clone 11]” here?
A: Its Kd is 1.1 nM.

Q: With “ATATATATGGGAGGACGATGCGGGCCAACCCCTAGTGAACAACAACACTCCCACAGACGACGAGCGGGAAAAAAAA [PDGF pool 4 clone 87]” as the sequence, how does the Kd ([1]; plateau 36%, rate 0.29) read?
A: Its Kd is 2 nM.

Q: Which Kd (Interleukin-4; plateau 10%, rate 1.7) does the source give for “ATATATATGGGAGGACGATGCGGGCCAAGGACATTCTTGTTCGTTGTTGCTGTCCACTGTCTCCAGACGACGAGCGGGAAAAAAAA [IL-4 pool 012 clone 78]” here?
A: Its Kd is 9.7 nM.

Q: With “ATATATATGGGAGGACGATGCGGGCCAAGGTTCCCTTCTGCCTCATTGTTGTGGGAACCCATCCAGACGACGAGCGGGAAAAAAAA [IL-4 pool 012 clone 41]” as the sequence, how does the Kd (Interleukin-4; plateau 58%, rate 0.54, Table 7 sequence differs slightly from listing) read?
A: Its Kd is 61 nM.

Q: “ATATATATGGGAGGACGATGCGGGCCACGTGTATTATCCTCAGCTTATAGCCATGGCATGGACCAGACGACGAGCGGGAAAAAAAA [Angiogenin pool 011 clone 58]” was tested. Which Kd (Angiogenin; plateau 16%, rate 1.58) did it give?
A: Its Kd is 2.2 nM.

Q: How did the Kd ([3]; plateau 94%, rate 0.38) turn out when “ATATATATGGGAGGACGATGCGGGCCCCAAACACTTGTTCCTATCTTTCAACCCCCCTTGATCCAGACGACGAGCGGGAAAAAAAA [beta-NGF pool 031 clone 78]” was run?
A: The Kd was 31 nM.

Q: For “ATATATATGGGAGGACGATGCGGGCCCTACTTGCATGAATATCCACTCCTAGGCTTGAGGGAGCAGACGACGAGCGGGAAAAAAAA [Angiogenin pool 011 clone 85]”, which Kd (Angiogenin; plateau 31%, rate 3.5) is on record?
A: Its Kd is 0.2 nM.

Q: For “ATATATATGGGAGGACGATGCGGGCCGAAGTCTAAACCTGCTCGTGACTTTCTTTCGATGTTGCAGACGACGAGCGGGAAAAAAAA [IL-4 pool 012 clone 8]”, which Kd (Interleukin-4; plateau 40%, rate 1.8) is on record?
A: Its Kd is 39 nM.

Q: For “ATATATATGGGAGGACGATGCGGGCCTACCAACTCCCCTCTAGTCCTGTTCTATCCACGTTGGCAGACGACGAGCGGGAAAAAAAA [IL-4 pool 012 clone 31]”, which Kd (Interleukin-4; plateau 49%, rate 0.98) is on record?
A: The Kd was 21 nM.

Q: How did the Kd ([1]; plateau 53%, rate 0.2) turn out when “ATATATATGGGAGGACGATGCGGGCGAAGGCACACCGAGTTCATAGTATCCCACAGACGACGAGCGGGAAAAAAAA [PDGF pool 4 clone 64]” was run?
A: Its Kd is 4 nM.

Q: With “ATATATATGGGAGGACGATGCGGGCGGAAGAGGCAGGGTACCACGGCAGAGGTCAGACGACGAGCGGGAAAAAAAA [PDGF pool 4 clone 24]” as the sequence, how does the Kd ([1]; plateau 52%, rate 0.25) read?
A: The Kd was 2 nM.

Q: Which Kd ([1]; plateau 100%, rate 0.34) does the source give for “ATATATATGGGAGGACGATGCGGGCGGCAGACGCGCCGGGTACCCCAGGTCCCCAGACGACGAGCGGGAAAAAAAA [PDGF pool 008 clone 27]” here?
A: Its Kd is 3.2 nM.

Q: For “ATATATATGGGAGGACGATGCGGGCTCAATAACCTGAATCTACCTTTCCCTAGCAAAGGTCTGCAGACGACGAGCGGGAAAAAAAA [P-selectin pool 014 clone 24]”, which Kd ([2]; plateau 30%, rate 1.86) is on record?
A: The Kd was 2.1 nM.

Q: How did the Kd (Angiogenin; plateau 31%, rate 0.68) turn out when “ATATATATGGGAGGACGATGCGGGGCAAACTGCGTCGTATTATAAGCCTCGCTACAGATGCCACAGACGACGAGCGGGAAAAAAAA [Angiogenin pool 011 clone 12]” was run?
A: The Kd was 0.1 nM.

Q: Which Kd ([1]; plateau 100%, rate 0.24) does the source give for “ATATATATGGGAGGACGATGCGGGGGGCAAGAAGCACGGTACCCCAGGTCCGCCAGACGACGAGCGGGAAAAAAAA [PDGF pool 008 clone 33]” here?
A: The Kd was 5.7 nM.
